# Data as given in CN112707964A.
# Target: 重组NT抗原(自产，130410) (human) (UniProt P16860)
# Assay: BLI, antibody captured on AMC sensor, antigen in solution
# UniProt P16860, sequence (P16860 27-102): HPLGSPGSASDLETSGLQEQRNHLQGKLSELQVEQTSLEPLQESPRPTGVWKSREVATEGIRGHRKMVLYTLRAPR
row,Binder,Kd
1,"WT 1-4 (antibody, from another filing) heavy: QVRLQESGPSQVKPAQTLSLTCAISGPSVTTYYVDWVRHTPGKPPEWLAQMTKDANAVHQPTLRSRLSITRDTSKSQVFLKLTGVTTEDTAVYYCVKGVIDFGPGLLVTVSSASTTPPKVYPLTSCCGDTSSSIVTLGCLVSSYMPEPVTVTWNSGALTSGVHTFPAILQSSGLYSLSSVVTVPASTSGAQTFICNVAHPASSTKVDKRVEPGCPDPCKHCRCPPPELPGGPSVFIFPPKPKDTLTISGTPEVTCVVVDVGQDDPEVQFSWFVDNVEVRTARTKPREEQFNSTFRVVSALPIQHQDWTGGKEFKCKVHNEGLPAPIVRTISRTKGQAREPQVYVLAPPQEELSKSTLSVTCLVTGFYPDYIAVEWQKNGQPESEDKYGTTTSQLDADGSYFLYSRLRVDKNSWQEGDTYACVVMHEALHNHYTQKSISKPPGK light: QAVLTQPSSVSRSLGQTVSITCSGSSDQVGPGDYVNWFQLIPGSAPKTLIFAATSRIRGVPDRFSGSRSGNTATLTINSLQAEDEADYYCGSGNSRGGYVWGSGTRLTVLSQPKSAPSVTLFPPSKEELDTNKATVVCLISDFYPGSVNVVWKADGSTINQNVKTTQASKQSNSKYAASSYLTLTGSEWKSKSSYTCEVTHEGSTVTKTVKPSECS",9.63 nM
2,"WT 1-9 (antibody, from another filing, V domains shown) VH: QVRLQESGPSQVKPAQTLSLTCAISGPSVTTYYIDWVRHTPGKPPEWLAQMTKDANAVHQPTLRSRLSITRDTSKSQVFLKLTGVTTEDTAVYYCVKGLIDWGPGLLVTVSS V domain: QAVLTQPSSVSRSLGQTVSITCSGSSDNVGPGDYVNWFQLIPGSAPKTLIFAAYSRLRGVPDRFSGSRSGNTATLTINSLQAEDEADYYCGSGNSRGGYVWGSGTRLTVLS",7.55 nM
3,"WT 1-7 (antibody, from another filing, V domains shown) VH: QVRLQESGPSQVKPAQTLSLTCAISGPSVTTYYLDWVRHTPGKPPEWLAQMTKDANAVHQPTVRSRLSITRDTSKSQVFLKLTGVTTEDTAVYYCVKGVIDWGPGLLVTVSS V domain: QAVLTQPSSVSRSLGQTVSITCSGSSDNVGPGDYINWFQLIPGSAPKTLIFAAYSRLRGVPDRFSGSRSGNTATLTINSLQAEDEADYYCGSGNSRGGYVWGSGTRLTVLS",6.76 nM
4,"WT 1-8 (antibody, from another filing, V domains shown) VH: QVRLQESGPSQVKPAQTLSLTCAISGPSLTTYYVDWVRHTPGKPPEWLAQMTKDANAVHQPTVRSRLSITRDTSKSQVFLKLTGVTTEDTAVYYCVKGIIDWGPGLLVTVSS V domain: QAVLTQPSSVSRSLGQTVSITCSGSSDNVGPGDYINWFQLIPGSAPKTLIFAAYSRVRGVPDRFSGSRSGNTATLTINSLQAEDEADYYCGSPNSRNYVWGSGTRLTVLS",8.36 nM
5,"WT 1-2 (antibody, from another filing, V domains shown) VH: QVRLQESGPSQVKPAQTLSLTCAISGPSLTTYYIDWVRHTPGKPPEWLAQMTKDANAVHQPTLRSRLSITRDTSKSQVFLKLTGVTTEDTAVYYCVKGVIDWGPGLLVTVSS V domain: QAVLTQPSSVSRSLGQTVSITCSGSSDNVGPGDYLNWFQLIPGSAPKTLIFAASSRIRGVPDRFSGSRSGNTATLTINSLQAEDEADYYCGSPNSRNYVWGSGTRLTVLS",6.74 nM

# The next binders have a lower Kd than those just listed; values first:
row,Kd,Binder
1,5.31 nM,"WT 1-5 (antibody, from another filing) heavy: QVRLQESGPSQVKPAQTLSLTCAISGPSLTTYYLDWVRHTPGKPPEWLAQMTKDANAVHNPTVRSRLSITRDTSKSQVFLKLTGVTTEDTAVYYCVKGLIDFGPGLLVTVSSASTTPPKVYPLTSCCGDTSSSIVTLGCLVSSYMPEPVTVTWNSGALTSGVHTFPAILQSSGLYSLSSVVTVPASTSGAQTFICNVAHPASSTKVDKRVEPGCPDPCKHCRCPPPELPGGPSVFIFPPKPKDTLTISGTPEVTCVVVDVGQDDPEVQFSWFVDNVEVRTARTKPREEQFNSTFRVVSALPIQHQDWTGGKEFKCKVHNEGLPAPIVRTISRTKGQAREPQVYVLAPPQEELSKSTLSVTCLVTGFYPDYIAVEWQKNGQPESEDKYGTTTSQLDADGSYFLYSRLRVDKNSWQEGDTYACVVMHEALHNHYTQKSISKPPGK light: QAVLTQPSSVSRSLGQTVSITCSGSSDQVGPGDYLNWFQLIPGSAPKTLIFAASSRIRGVPDRFSGSRSGNTATLTINSLQAEDEADYYCGSANSRNYVWGSGTRLTVLSQPKSAPSVTLFPPSKEELDTNKATVVCLISDFYPGSVNVVWKADGSTINQNVKTTQASKQSNSKYAASSYLTLTGSEWKSKSSYTCEVTHEGSTVTKTVKPSECS"
2,5.25 nM,"WT 1-6 (antibody, from another filing, V domains shown) VH: QVRLQESGPSQVKPAQTLSLTCAISGPSITTYYVDWVRHTPGKPPEWLAQMTKDANAVHQPTIRSRLSITRDTSKSQVFLKLTGVTTEDTAVYYCVKGLIDWGPGLLVTVSS V domain: QAVLTQPSSVSRSLGQTVSITCSGSSDQVGPGDYLNWFQLIPGSAPKTLIFAASSRLRGVPDRFSGSRSGNTATLTINSLQAEDEADYYCGSANSRGGYVWGSGTRLTVLS"
3,6.25 nM,"WT 1-1 (antibody, from another filing, V domains shown) VH: QVRLQESGPSQVKPAQTLSLTCAISGPSVTTYYIDWVRHTPGKPPEWLAQMTKDANAVHNPTIRSRLSITRDTSKSQVFLKLTGVTTEDTAVYYCVKGVIDWGPGLLVTVSS V domain: QAVLTQPSSVSRSLGQTVSITCSGSSDNVGPGDYINWFQLIPGSAPKTLIFAAYSRIRGVPDRFSGSRSGNTATLTINSLQAEDEADYYCGSANSRNYVWGSGTRLTVLS"
